Paper PMC9352680, “A comprehensive thermodynamic model for RNA binding by the Saccharomyces cerevisiae Pumilio protein PUF4”

T1: PUF4 RNA-binding domain (Saccharomyces cerevisiae, UniProt P25339 537-888)
T1 sequence: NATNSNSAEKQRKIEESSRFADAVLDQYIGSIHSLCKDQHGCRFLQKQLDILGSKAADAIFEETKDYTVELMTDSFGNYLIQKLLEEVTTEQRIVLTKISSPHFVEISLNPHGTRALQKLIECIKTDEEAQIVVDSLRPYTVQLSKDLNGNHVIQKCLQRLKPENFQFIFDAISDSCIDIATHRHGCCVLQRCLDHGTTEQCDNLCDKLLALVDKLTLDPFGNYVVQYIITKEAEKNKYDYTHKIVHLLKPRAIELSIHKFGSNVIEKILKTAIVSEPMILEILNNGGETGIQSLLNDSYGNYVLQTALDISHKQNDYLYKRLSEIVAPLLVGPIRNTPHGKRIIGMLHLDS


Each binder was assayed against T1, PUF4 RNA-binding domain (assay: Mg; RNA-MaP; 20 mM Na-HEPES pH 7.4, 30 mM KOAc, 0.75 mM MgCl2, 0.1% Tween-20, 5% glycerol, 0.1 mg/mL BSA, 2 mM DTT; 25 C; 0.0125-409.6 nM protein). Conditions: tags: N-His6-TEV cleaved; C-SNAP kept, Cy3B-labelled; label: tethered on chip by stalled RNA polymerase.
ACAAACCUACACUAUACUACAAAC (ssRNA) [Id_ii_S3_P3E.4_K3.3_C3.2_H3.3_A3.1_F3.1_T3.2_[T9C]_[A10T]] was tested, and the Kd was over 2300 nM.
UCUCUUUGUAUAAUUCUCUCUU (ssRNA) [Ib_S1_P5E.1_K5.1_C5.1_H5.1_A5.1_[T6A]_F5.1_[A10C]_T5.1] gave a Kd of 10.6 nM.
For ACAAACCCACACUAUACGACAAAC (ssRNA) [Id_ii_S3_P3E.4_K3.3_C3.2_[T-1C]_H3.3_A3.1_F3.1_T3.2_[T9C]_[A10G]], the Kd was over 2300 nM.
Work on ACAAACGAUAUAUAUUACAACAAAC (ssRNA) [Id_ii_S3_P4E.3_K4.2_C4.2_[C-2G]_[T-1A]_H4.2_A4.1_F4.1_T4.2_[G10C]_[T11A]] yielded a Kd of 50.4 nM.
With ACAAACAGUAUAUAUUAGGACAAAC (ssRNA) [Id_ii_S3_P4E.3_K4.2_C4.2_[C-2A]_[T-1G]_H4.2_A4.1_F4.1_T4.2_[T11G]] the Kd was 20.3 nM.
ACAAACGAUAUAUAUUAUAACAAAC (ssRNA) [Id_ii_S3_P4E.3_K4.2_C4.2_[C-2G]_[T-1A]_H4.2_A4.1_F4.1_T4.2_[G10T]_[T11A]] was tested, and the Kd was 41.7 nM.
With ACAAACCUACACUAUAUGACAAAC (ssRNA) [Id_ii_S3_P3E.4_K3.3_C3.2_H3.3_A3.1_F3.1_T3.2_[A10G]] the Kd was over 2300 nM.
In the case of ACAAACGCUAUAUAUUAUCACAAAC (ssRNA) [Id_ii_S3_P4E.3_K4.2_C4.2_[C-2G]_[T-1C]_H4.2_A4.1_F4.1_T4.2_[G10T]_[T11C]], the Kd is reported as 20.1 nM.
ACAAACAAUAUAUAUUACGACAAAC (ssRNA) [Id_ii_S3_P4E.3_K4.2_C4.2_[C-2A]_[T-1A]_H4.2_A4.1_F4.1_T4.2_[G10C]_[T11G]] gave a Kd of 43.6 nM.
ACAAACGUUAUAUAUUAUUACAAAC (ssRNA) [Id_ii_S3_P4E.3_K4.2_C4.2_[C-2G]_H4.2_A4.1_F4.1_T4.2_[G10T]] showed a Kd of 31.6 nM.
With ACAAACUUUAUAUAUUAUCACAAAC (ssRNA) [Id_ii_S3_P4E.3_K4.2_C4.2_[C-2T]_H4.2_A4.1_F4.1_T4.2_[G10T]_[T11C]] the Kd was 16.5 nM.
ACAAACCUACACUAUAUCACAAAC (ssRNA) [Id_ii_S3_P3E.4_K3.3_C3.2_H3.3_A3.1_F3.1_T3.2_[A10C]] gave a Kd of 1760 nM.
ACAAACACUAUAUAUUAUAACAAAC (ssRNA) [Id_ii_S3_P4E.3_K4.2_C4.2_[C-2A]_[T-1C]_H4.2_A4.1_F4.1_T4.2_[G10T]_[T11A]] was tested, and the Kd was 20.5 nM.
Binder UCUCUUUGUAAUAUUUUCUCUU (ssRNA) [Ib_S1_P5E.1_K5.1_C5.1_H5.1_A5.1_[T5A]_F5.1_[A10T]_T5.1] has a Kd of 15 nM.
With ACAAACCGACACUAUAAAACAAAC (ssRNA) [Id_ii_S3_P3E.4_K3.3_C3.2_[T-1G]_H3.3_A3.1_F3.1_T3.2_[T9A]] the Kd was over 2300 nM.
ACAAACCUACACUAUAAAACAAAC (ssRNA) [Id_ii_S3_P3E.4_K3.3_C3.2_H3.3_A3.1_F3.1_T3.2_[T9A]] gave a Kd of over 2300 nM.
Work on ACAAACACUAUAUAUUAAAACAAAC (ssRNA) [Id_ii_S3_P4E.3_K4.2_C4.2_[C-2A]_[T-1C]_H4.2_A4.1_F4.1_T4.2_[G10A]_[T11A]] yielded a Kd of 34 nM.
Binder ACAAACAUACACUAUAUUACAAAC (ssRNA) [Id_ii_S3_P3E.4_K3.3_C3.2_[C-2A]_H3.3_A3.1_F3.1_T3.2_[A10T]] has a Kd of 556 nM.
ACAAACUCUAUAUAUUAUAACAAAC (ssRNA) [Id_ii_S3_P4E.3_K4.2_C4.2_[C-2T]_[T-1C]_H4.2_A4.1_F4.1_T4.2_[G10T]_[T11A]] showed a Kd of 15.5 nM.
In the case of ACAAACUUUAUAUAUUAACACAAAC (ssRNA) [Id_ii_S3_P4E.3_K4.2_C4.2_[C-2T]_H4.2_A4.1_F4.1_T4.2_[G10A]_[T11C]], the Kd is reported as 29.5 nM.
In the case of ACAAACUCUAUAUAUUAUGACAAAC (ssRNA) [Id_ii_S3_P4E.3_K4.2_C4.2_[C-2T]_[T-1C]_H4.2_A4.1_F4.1_T4.2_[G10T]_[T11G]], the Kd is reported as 14.5 nM.
ACAAACACUAUAUAUUACUACAAAC (ssRNA) [Id_ii_S3_P4E.3_K4.2_C4.2_[C-2A]_[T-1C]_H4.2_A4.1_F4.1_T4.2_[G10C]] gave a Kd of 17.6 nM.
For ACAAACAGUAUAUAUUAUCACAAAC (ssRNA) [Id_ii_S3_P4E.3_K4.2_C4.2_[C-2A]_[T-1G]_H4.2_A4.1_F4.1_T4.2_[G10T]_[T11C]], the Kd was 25.5 nM.
ACAAACGAUAUAUAUUAAAACAAAC (ssRNA) [Id_ii_S3_P4E.3_K4.2_C4.2_[C-2G]_[T-1A]_H4.2_A4.1_F4.1_T4.2_[G10A]_[T11A]] gave a Kd of 74.6 nM.
ACAAACGAUAUAUAUUACCACAAAC (ssRNA) [Id_ii_S3_P4E.3_K4.2_C4.2_[C-2G]_[T-1A]_H4.2_A4.1_F4.1_T4.2_[G10C]_[T11C]] showed a Kd of 53.1 nM.
ACAAACAUACACUAUAUCACAAAC (ssRNA) [Id_ii_S3_P3E.4_K3.3_C3.2_[C-2A]_H3.3_A3.1_F3.1_T3.2_[A10C]] was tested, and the Kd was 1230 nM.
ACAAACAAUAUAUAUUAUCACAAAC (ssRNA) [Id_ii_S3_P4E.3_K4.2_C4.2_[C-2A]_[T-1A]_H4.2_A4.1_F4.1_T4.2_[G10T]_[T11C]] gave a Kd of 70.9 nM.
ACAAACACUAUAUAUUAUCACAAAC (ssRNA) [Id_ii_S3_P4E.3_K4.2_C4.2_[C-2A]_[T-1C]_H4.2_A4.1_F4.1_T4.2_[G10T]_[T11C]] gave a Kd of 17.7 nM.
With ACAAACCUACACUAUACAACAAAC (ssRNA) [Id_ii_S3_P3E.4_K3.3_C3.2_H3.3_A3.1_F3.1_T3.2_[T9C]] the Kd was 1880 nM.
ACAAACGGUAUAUAUUAAGACAAAC (ssRNA) [Id_ii_S3_P4E.3_K4.2_C4.2_[C-2G]_[T-1G]_H4.2_A4.1_F4.1_T4.2_[G10A]_[T11G]] gave a Kd of 48.8 nM.
For ACAAACUAUAUAUAUUAACACAAAC (ssRNA) [Id_ii_S3_P4E.3_K4.2_C4.2_[C-2T]_[T-1A]_H4.2_A4.1_F4.1_T4.2_[G10A]_[T11C]], the Kd was 32.9 nM.
